From patent US20250197503A1 (SHANGHAI INSTITUTE OF MATERIA MEDICA CHINESE ACADEMY OF …, published 2025)

Columns and labels:
[1] = molecular target: T1, human PD-L1 protein (ELISA antigen) (human, UniProt Q9NZQ7 19-238, limits assumed); assay: ELISA; PD-L1 protein on NeutrAvidin plate, crude nanobody, anti-HA detection; positive = absorbance more than three times control
T1 construct: also called PD-L1-biotin protein
Method: After several rounds of panning, TG1 competent cells in the logarithmic phase of growth were infected with the eluted phages, gradiently diluted and spread on the plate for overnight culture. 96 clones were picked and inoculated into a 96-well round-bottom plate with 100 μL of culture medium per well and left to be incubated overnight as the master plate. Then 10 μL of overnight cultured bacterial solution was pipetted into a 96-well deep-bottom plate with 1 mL of culture medium per well to induce nanobody expression which was then subjected to crude purification. The 96-well ELISA plate was coated with 5 μg/mL NeutrAvidin solution at 4° C., 700 rpm, overnight. The next day, 2% skim milk powder was added to block the plate at room temperature and washed 3 times with a solution containing bovine serum albumin BSA. 100 μL 3 μg/mL PD-L1 protein was added and incubated at room temperature for 30 minutes, then washed. The crudely extracted nanobody was added and incubated at room temperature for 1 h followed by washing. Mouse anti-HA primary antibody was added and the mixture was incubated at room temperature for 1 hour followed by washing. Goat anti-mouse alkaline phosphatase-labeled secondary antibody was added and the mixture was incubated at room temperature for 1 hour followed by washing. Alkaline phosphatase colorimetric solution was added for 10 minutes, and the absorption value was detected at 405 nm on a microplate reader. A well with an absorption value that is more than three times the absorption value of the control group is preliminarily determined as a positive well. The positive clones were transferred to a shaking tube for culture in order to extract the plasmid and then subjected to sequencing. Finally, 11 candidate positive clones were obtained.

[2] = molecular target: T2, human PD-L1 on stably transfected cell line HEK293T/hPD-L1 (human, UniProt Q9NZQ7 19-290); assay: flow cytometry on HEK293T/hPD-L1 cells, 10 ug/ml nanobody, anti-human IgG Fc (FITC)
T2 construct: whole, on cells
T2 sequence (Q9NZQ7 19-290): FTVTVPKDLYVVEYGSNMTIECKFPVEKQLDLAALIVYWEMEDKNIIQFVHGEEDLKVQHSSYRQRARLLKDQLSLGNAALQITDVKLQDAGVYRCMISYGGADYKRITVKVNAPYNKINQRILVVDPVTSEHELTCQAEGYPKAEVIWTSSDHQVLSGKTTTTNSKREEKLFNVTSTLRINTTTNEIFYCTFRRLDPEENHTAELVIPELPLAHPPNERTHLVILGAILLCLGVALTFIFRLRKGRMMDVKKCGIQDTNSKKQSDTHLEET
Method: The stably transfected cell line HEK293T/hPD-L1 was digested and centrifuged, and the supernatant was removed. The cells were washed once with PBS and the cell density was adjusted to 2.5×10⁶ cells/mL. 100 μL of cell suspension was added to each cell sample, i.e., 2.5×10⁵ cells/sample. Different anti-human PD-L1 candidate nanobodies (at a concentration of 10 μg/ml) were added into the samples. The samples were incubated in a 4° C. refrigerator for 20 min and then centrifuged to remove the supernatant, and washed once with PBS. The diluted antibody anti-human IgG Fc (FITC) was used as a secondary antibody to resuspend the above cells. The abtained samples were incubated in a 4° C. refrigerator for 20 min and centrifuged to remove the supernatant. The cells were washed twice with PBS, transferred to a flow tube; and detected on a flow cytometer to obtain the binding activity of the candidate nanobody with human PD-L1, as shown in FIG. 1.

T1 sequence (Q9NZQ7 19-238 limits assumed): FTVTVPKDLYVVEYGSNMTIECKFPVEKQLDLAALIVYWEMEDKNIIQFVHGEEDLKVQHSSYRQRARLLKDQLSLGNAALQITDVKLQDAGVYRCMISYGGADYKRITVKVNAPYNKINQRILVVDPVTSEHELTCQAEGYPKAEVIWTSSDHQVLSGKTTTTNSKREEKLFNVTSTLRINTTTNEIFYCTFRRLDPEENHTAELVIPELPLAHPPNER

Binder	binding result [1]	binding result [2]
h_Nb30 VHH (VHH) VHH: DVQLQESGGGLVQPGESLRVSCAASGFTFSNYYMTWVRQAPGKGLEWVSFLNPSSSERFYADSVKGRFTISRDNAKNTLDLLMHSLKPEDTALYYCARHLKYNWAPNYDYWGQGTQVTVSS	binds	–
h_Nb12 (expressed from pFUSE-hIgG1-Fc) (Fc fusion, not shown: human IgG1 Fc as encoded by the pFUSE-hIgG1-Fc vector) DVQLQESGGGLVQAGGSLRLSCAASGRTFSSRAMGWFRQAPGKEREFVAAISGSGRNTYYADSVKGRFTISRDNAKNSVNLQMNSLKPEDTAVYYCNAAGGGITIATMTQRTQYDYWGQGTQVTVSS	–	binds
h_Nb2 VHH (VHH) VHH: DVQLQESGGGLVQPGGSLRLSCAASGFTFGDRWMYWLRQAPGKGLEWVSSINPAGRSTYYADSVKGRFTISRDNAKNTLYLQMNSLKSEDTAVYYCTKDPGGYQKGQGTQVTVSS	binds	–
h_Nb1 (expressed from pFUSE-hIgG1-Fc) (Fc fusion, Candidates were cloned into pFUSE-mIgG2b-Fc and pFUSE-hIgG1-Fc; not shown: human IgG1 Fc as encoded by the pFUSE-hIgG1-Fc vector) DVQLQESGGGLVQPGGSLRLSCAASGFTFSSYAMSWVRQAPGKGLEWVSDINSGGDNTDYADSVKGRFTISRDNAKNTLYLQMNSLKPEDTAVYYCARGPKLCFSSWGQGTQVTVSS	–	binds
h_Nb5 VHH (VHH) VHH: DVQLQESGGGAVQSGESLRLSCAASGRDLMFYDVAWFRQAPGKEREGVSYIRSSGTLTKYADSVKGRFTISRDNDKNTVSLQMNSLNPEDTAKYYCAARLQSATSHSDLREDEFNSWGQGTQVTVSS	binds	–
h_Nb9 (expressed from pFUSE-hIgG1-Fc) (Fc fusion, not shown: human IgG1 Fc as encoded by the pFUSE-hIgG1-Fc vector) DVQLQESGGGLVQPGGSLRLSCASSGSIFGLGVKGWYRQPPGNQREMVAQIISGGRISYADSVKGRFTISRDNAKNTVYLQMNSLKPEDTAVYYCNAWGPGQRNYWGRGTQVTVSS	–	binds
h_Nb13 (expressed from pFUSE-hIgG1-Fc) (Fc fusion, not shown: human IgG1 Fc as encoded by the pFUSE-hIgG1-Fc vector) DVQLQESGGGLVQPGGSLRLSCAASGSIFSINAMGWYRQAPGKSRELVAAITSGGSTNYADSVKGRFTISRDTAKNTVYLLMNSLEPEDTAVYYCNVERRRPPHYLSEYDFDWGQGTQVTVSS	–	binds
h_Nb4 (expressed from pFUSE-hIgG1-Fc) (Fc fusion, not shown: human IgG1 Fc as encoded by the pFUSE-hIgG1-Fc vector) DVQLQESGGGLVQAGGSLRLSCAAPSRMFSGYTMGWYRQAPGKQRELVAQIANGGFTDYIDSVKGRFSISRDTVLNMMYLQMNSLKPEDTAVYYCNLVLVNGIPTRNWGQGTQVTVSS	–	binds
h_Nb4 VHH (VHH) VHH: DVQLQESGGGLVQAGGSLRLSCAAPSRMFSGYTMGWYRQAPGKQRELVAQIANGGFTDYIDSVKGRFSISRDTVLNMMYLQMNSLKPEDTAVYYCNLVLVNGIPTRNWGQGTQVTVSS	binds	–

Second part, the binder after the results:

binding result [1]	binding result [2]	Binder
–	binds	h_Nb6 (expressed from pFUSE-hIgG1-Fc) (Fc fusion, not shown: human IgG1 Fc as encoded by the pFUSE-hIgG1-Fc vector) DVQLQESGGGLAQPGGSLRLSCAASGFTFSSYAMSWARQAPGKGLEWVAGIYRGGSDTYYADSVKGRFTISRDNTKNTLYLQMNSLKPEDTALYYCIQGWGLGYANYDYWGQGTQVTVSS
binds	–	h_Nb12 VHH (VHH) VHH: DVQLQESGGGLVQAGGSLRLSCAASGRTFSSRAMGWFRQAPGKEREFVAAISGSGRNTYYADSVKGRFTISRDNAKNSVNLQMNSLKPEDTAVYYCNAAGGGITIATMTQRTQYDYWGQGTQVTVSS
–	binds	h_Nb2 (expressed from pFUSE-hIgG1-Fc) (Fc fusion, Candidates were cloned into pFUSE-mIgG2b-Fc and pFUSE-hIgG1-Fc; not shown: human IgG1 Fc as encoded by the pFUSE-hIgG1-Fc vector) DVQLQESGGGLVQPGGSLRLSCAASGFTFGDRWMYWLRQAPGKGLEWVSSINPAGRSTYYADSVKGRFTISRDNAKNTLYLQMNSLKSEDTAVYYCTKDPGGYQKGQGTQVTVSS
–	binds	h_Nb5 (expressed from pFUSE-hIgG1-Fc) (Fc fusion, not shown: human IgG1 Fc as encoded by the pFUSE-hIgG1-Fc vector) DVQLQESGGGAVQSGESLRLSCAASGRDLMFYDVAWFRQAPGKEREGVSYIRSSGTLTKYADSVKGRFTISRDNDKNTVSLQMNSLNPEDTAKYYCAARLQSATSHSDLREDEFNSWGQGTQVTVSS
binds	–	h_Nb9 VHH (VHH) VHH: DVQLQESGGGLVQPGGSLRLSCASSGSIFGLGVKGWYRQPPGNQREMVAQIISGGRISYADSVKGRFTISRDNAKNTVYLQMNSLKPEDTAVYYCNAWGPGQRNYWGRGTQVTVSS
–	binds	h_Nb26 (expressed from pFUSE-hIgG1-Fc) (Fc fusion, not shown: human IgG1 Fc as encoded by the pFUSE-hIgG1-Fc vector) DVQLQESGGGLVQPGGSLRLSCAAPGSIFRINAMGWYRQAPGKQRELVAAITSGGSTNYADSVQGRFTISRDNAKNTVYLQMNSLKPEDTAVYYCNVERRRPPHYYSDYDFDWGQGTQVTVSS
